Laboratory results reported in US20170210812A1.
Each block holds one binder with its values, some of them ahead of it.

What was measured:
[1] = target: EGFRvIII expressed on cells (human) (UniProt P00533); assay: cell-based or functional assay
[2] = target: wild-type EGFR expressed on cells (human) (UniProt P00533); assay: cell-based or functional assay

percentage of live target cells, LN229-EGFRvIII with activated T cells, 0.01 nM antibody [1]: 35%
percentage of live target cells, parental LN229 with activated T cells, 0.01 nM antibody [2]: 100%
B1: 42G9/CD3 biFc (bispecific antibody, part only; not given: anti-CD3 arm and Fc, V domains shown, part only)
VH: QVTLKESGPVLLKPTETLTLTCTVSGFSLSNPRMGVSWIRQPPGKALEWFAHIFSTDEKSLKLSLRSRLTLSKDTSKSQVVLTMTNMAPVDSATYYCARDSSNYEGYFDFWGQGTLVTVSS
VL: EVVLTQSPATLSVSPGERATLSCRASQSVRSNLAWYQQKSGQAPRLLIYGSTIRATGVPARFSGSGSGTEFTLTISSLQSEDFAVYYCQQYSDWPFTFGPGTKVDIK

percentage of live target cells, DKMG with activated T cells, 1 nM antibody [1]: 35%
percentage of live target cells, LN18-EGFRvIII with activated T cells, 0.01 nM antibody [1]: 20%
percentage of live target cells, parental LN18 with activated T cells, 0.01 nM antibody [2]: 100%
B2: h62G7-EQ/L6/CD3 biFc (bispecific antibody, part only; not given: anti-CD3 arm and Fc, V domains shown, part only)
VH: QVQLVQSGAEVKKPGASVKVSCKASGYTFTDYTLHWVRQAPGQGLEWMGGIWPITGGTTYNQKFKGRVTMTRDTSTSTVYMELSSLRSEDTAVYYCARGEAQGSWGQGTLVTVSS
VL: DVVMTQSPLSLPVTLGQPASISCKSSQSLLYSNGKTYLNWFQQRPGQSPRRLIYQVSKLDSGVPDRFSGSGSGTDFTLKISRVEAEDVGVYYCGQDTHFPLTFGGGTKVEIK
